From US20150191546A1

Molecular target: recombinant PR1/HLA-A*0201 monomer (human)
Experiment: SPR (Biacore), antibody captured, peptide/HLA-A2 as analyte

BB7.2 murine monoclonal antibody (HLA-A*0201 allele-specific mouse IgG2a)
Kd: 162 nM
